± gives the uncertainty stated by the source.

A short description of this data set: amyloid nucleation score (Sup35N fusion, yeast selection) (log enrichment); library NNK3; higher = more nucleation; inactive = no reads after selection. In a few lines:
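The nucleation score equals the log enrichment of output over input reads from DiMSum, centred on the mode score of non-aggregating sequences. It was computed only for sequences with 100 or more input reads. The reads came from Illumina sequencing of plasmid inserts from psi-negative yeast expressing Sup35N fused to peptides of 20 random codons, induced with 100 μM copper sulfate for 24 hours and grown 7 days at 30°C without adenine and uracil.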
As for LFTLWVMRFEFWYSCFFVSV, the amyloid nucleation score result was “inactive”.
For the substance FWLHLVPYRFPIVGLCLRG, the amyloid nucleation score entry is “inactive”.
Regarding SYNYRGADRWLT, the amyloid nucleation score entry is “inactive”.
As for TITFSWLAYAVGMQPDNNEV, the amyloid nucleation score is 1.26 ± 0.12.
As for CLVPFAGQWHTVEIMMSSCQ, the amyloid nucleation score result was “inactive”.
Consider FFRSQKWKSAYMLDNGHSNS, for which the amyloid nucleation score entry was “inactive”.
Take SSCPYIFYQLST: the amyloid nucleation score result is “inactive”.
PRGIDG: the amyloid nucleation score result is “inactive”.
Next, MLWEVDLNVRTSMADT: “inactive”; LRPYHSRVWCVRLQSYSMVR: “inactive”; ITWWLVIVAARSEGSCSPFQ: 0.158 ± 0.27.
Next, HLPWFRVGATDMLSYTKSLG: “inactive”.
As for MTYCRVFRNRASDKPYMMRL, the amyloid nucleation score result is “inactive”.
As for HAWTQPNHI, the amyloid nucleation score entry was “inactive”.
Substance LPGCSTWFGVFFIHDFNLTL gave an amyloid nucleation score of 1.69 ± 0.091.
For the substance VGLALRLCLAVLSDRKWILS, the amyloid nucleation score result is “inactive”.
On to WPMMATLQYHDLLLAFLFRK, for which the amyloid nucleation score result was “inactive”.
Regarding NCFVSICLFFASTFWLGLHN, the amyloid nucleation score entry is “inactive”.
With CLGFSL the entry was “inactive”; with VYAEKMMVSSHLCGLRRRFK, “inactive”; with VSPMVALCCFCLKEMNFGVH, 2.92 ± 0.069.
IWSNTYPSIRSLWMSFGVVI: the amyloid nucleation score result was “inactive”.
For the substance SHVKYNNMW, the amyloid nucleation score entry is “inactive”.
RLSGVIGT: the amyloid nucleation score entry is “inactive”.
With THLSVEFS, the amyloid nucleation score result is “inactive”.
With YLDKRYVVGVFMLDSNLDLS, the amyloid nucleation score result was “inactive”.
Substance SSFEFVE returned an amyloid nucleation score of 0.698 ± 0.22.
Next, PQLCESLELSEKRRTEDLVG: “inactive”.
With QLHVMNVYFFWKDSSALMRA, the amyloid nucleation score result is “inactive”.
Regarding FLPDKGYTWKGTLWRWESNN, the amyloid nucleation score entry was “inactive”.
For the substance MLSWLYTSGRSRYVILLQP, the amyloid nucleation score result is “inactive”.
For the substance LCHICDAVTSYLLP, the amyloid nucleation score is -0.406 ± 1.
Next, NTGVENGREVDYARGANRSP: “inactive”; SSLLSEWNGGKSYNSVVDEV: “inactive”; SVYGACSRFPTNVVYNRSEY: “inactive”.
As for DRHVSQFSVWDW, the amyloid nucleation score result is “inactive”.
Regarding SADLFVSEYKGIRMTIGNVF, the amyloid nucleation score result is “inactive”.
Next, GNFCDCEDFHKGSAGLRWSG: “inactive”; KTISC: “inactive”.
In turn, VRHNLLGCLLGSFLGASSNR came in with an amyloid nucleation score of -0.306 ± 0.37.
Next, LRARPLLITFGVEWGSASDP: 0.465 ± 0.22; DSLSDLLYSFKFKG: “inactive”; PRHWFREFMGMVMI: 0.317 ± 0.51.
With RTDYVISNVAMCNSLLC the figure was 2.8 ± 0.082; with ENTCYRVGALIAAFTSFKLW, “inactive”.
In turn, AFVGRWYCGFVASVIFEMQG displayed an amyloid nucleation score of 0.069 ± 0.47.
With LSMLI, the amyloid nucleation score entry was “inactive”.
LIRMQVGLLGV: the amyloid nucleation score entry is “inactive”.
As for DSFNCDFNMCHDYVM, the amyloid nucleation score entry is “inactive”.
LTCPSFCVSRLRESWDESLS: the amyloid nucleation score entry was “inactive”.
Take GKDSCKTTLVSRRLLRLKAP: the amyloid nucleation score entry is “inactive”.
Regarding VIVELVCLVMFNVWVGKGLW, the amyloid nucleation score was -0.054 ± 0.31.
Turning to WSLCGDVRTQHINHVSVQVS, the amyloid nucleation score entry was “inactive”.
For the substance CQCEIF, the amyloid nucleation score worked out at 0.065 ± 0.56.
As to ARFISVCEHEARLRERTCMC, the amyloid nucleation score result was “inactive”.
Consider TRISMSENKVVKREVVATRR, for which the amyloid nucleation score entry is “inactive”.
For the substance CLRLGLIMDTKK, the amyloid nucleation score entry is “inactive”.
In turn, DNQVICISCYGLIGLKGGRQ yielded an amyloid nucleation score of 1.5 ± 0.11.
On to LGRYWHVIKLDLVPHMKWCE, for which the amyloid nucleation score result was “inactive”.
Regarding PFACAVAKNPHES, the amyloid nucleation score result is “inactive”.
In turn, LVMACCNIMKSATMIILYTM came in with an amyloid nucleation score of 1.26 ± 0.093.
With RYKTMRRVTFKHSLNKKWVK the entry was “inactive”.
With ISFCYALCCNKMKRLLARCK, the amyloid nucleation score result is “inactive”.
With KFKSRGRSTMLLVFNIVWRV, the amyloid nucleation score was -0.476 ± 0.42.
Regarding RIPKTKRYHPCYVRLRRSVY, the amyloid nucleation score result is “inactive”.
For the substance TLSFCWWRFMLVCRGVGGGR, the amyloid nucleation score result is “inactive”.
For the substance FHTPRILYTMNS, the amyloid nucleation score entry was “inactive”.
As to ATFRMGRKVPWS, the amyloid nucleation score was 1.01 ± 0.23.
Next, VMYNYARFRWFLCTDQ: 1 ± 0.2; RTTAK: “inactive”; ATFQSRFFCCRSRGGTLGCD: “inactive”.
Next, WTRMCSSVRTVR: “inactive”.
With MILCLLRKAQFCY the entry was “inactive”.
For the substance SDLSCSELEYSHGTNTDWVR, the amyloid nucleation score entry was “inactive”.
Consider NRTDHTLNCVEIFAWIWFNL, for which the amyloid nucleation score result was “inactive”.
In the case of NSGAWLSMEMMPCRMSVYAC, the amyloid nucleation score result was “inactive”.
As for KVLASCLSHFVDPNLEVSFH, the amyloid nucleation score result is “inactive”.
With LDWLICSWGN, the amyloid nucleation score entry is “inactive”.
As to SLLFRSLIWSTFDPCSELGP, the amyloid nucleation score entry is “inactive”.
DPLILPIVVDRIVADDCYCQ: the amyloid nucleation score entry is “inactive”.
As to SFFTGKAKGFYRQALRTYYR, the amyloid nucleation score was -0.093 ± 0.59.
QQEKLCLKHTSQVDI: the amyloid nucleation score entry was “inactive”.
For the substance ACKSGHLNSHKNGYYV, the amyloid nucleation score result is “inactive”.
With VIRPFVYGDNLVSSTTAMIF the entry was “inactive”; with SVSARSRRLWGSMRIAVTVF, “inactive”; with CFGRLLRTAILNLCNLFFAL, “inactive”.
GFFTYTTRSGDSSYGVEASA had an amyloid nucleation score of -0.289 ± 1.1.
Regarding KVADSVIEFMLTCWGIRQDS, the amyloid nucleation score result is “inactive”.
Take SFLVSFTGVMLEFNCTCHLA: the amyloid nucleation score entry was “inactive”.
For DWTGNMGDNHSTRVFRRKRD, the amyloid nucleation score entry was “inactive”.
On to RNSFVLWMVSSV, for which the amyloid nucleation score is -0.01 ± 0.45.
With KSFSHGLFDLRGKRTVEICL, the amyloid nucleation score result is “inactive”.
YGPKV: the amyloid nucleation score entry was “inactive”.
As for FNVRRHHYYGMCPLLISRVR, the amyloid nucleation score result was “inactive”.
For MTCWTTYNGTDIEGKGGINN, the amyloid nucleation score result is “inactive”.
On to FSSLLTSDWRASCLGPYVNM, for which the amyloid nucleation score result was “inactive”.
IVVQSNHAYTLVRTDSLVWM had an amyloid nucleation score of 1.17 ± 0.11.
Turning to QHMSRYYVFLLNCIQCIMNG, the amyloid nucleation score came out at 1.58 ± 0.12.
Take YDKQENVEGLFALF: the amyloid nucleation score entry is “inactive”.
As to LVMKQRLIMLYVKLNKAFLA, the amyloid nucleation score entry was “inactive”.
With LDDEVEQSTAASDIRLLSTL the entry was “inactive”.
For FLLDMGVNALSW, the amyloid nucleation score result was “inactive”.
On to LLCLLQEIGFVAITGWI, for which the amyloid nucleation score result is “inactive”.
Next, PGSDWDMLIMKGMKKRYLDY: “inactive”.
With LNLVRNWTISAAGKVALKWS the entry was “inactive”.
As for DMCIHWDEGNAWWYKSMASV, the amyloid nucleation score result was “inactive”.
Consider IDVRATNPVRAVETD, for which the amyloid nucleation score entry was “inactive”.
The substance RNGVHS returned an amyloid nucleation score of 0.149 ± 0.81.
For the substance PGSYGHGGWNTEFGCQVAIW, the amyloid nucleation score was -0.593 ± 1.9.
VPGFLGLTLHLLRREHQQNH: the amyloid nucleation score entry is “inactive”.
For the substance EMCSA, the amyloid nucleation score result was “inactive”.
For the substance FNWCWPISARAGELNLECWS, the amyloid nucleation score result was “inactive”.
As to RRDSDIDRALSLGYASRTTK, the amyloid nucleation score result is “inactive”.
With SFYSNGKLLVILFATMMD the entry was “inactive”.
With TYLVMS the entry was “inactive”.
With GKSSKDLHIFIMIRVWHYLT the entry was “inactive”; with KQVTVNTLMSPPVRYL, “inactive”; with RSLTLKLTGGVLALMRS, “inactive”.
For LSIVITRYDMSCSAETMFNL, the amyloid nucleation score entry is “inactive”.
In the case of LSCFNSVAHCDVNSGMFQIV, the amyloid nucleation score entry is “inactive”.
For the substance SHSVYIFFVSTFVGSLWSLP, the amyloid nucleation score result is “inactive”.
With TYCERKFTTSGTSYTSQKYF the entry was “inactive”; with ERLSMLVPYISDRYWLSDVN, “inactive”.
With TISLHFLGTADKPYLSWVAN the entry was “inactive”; with PDDCVGRSD, “inactive”.
With SFVMGSAANL, the amyloid nucleation score entry is “inactive”.
Next, ALFSLSWLNQRDSIWVKSDQ: “inactive”.
As to VSLYCVIWIR, the amyloid nucleation score came out at 1.22 ± 0.094.
For WAPACYTDSCVMIGGEPYRT, the amyloid nucleation score result was “inactive”.
Next, ESYINLDIHNYIKTIILSLA: “inactive”.

These data come from the supplement of paper PMC12042874.
